Assay [1] concerns the target Human polyclonal immunoglobulin G (IgG) (human). The experiment in a line: affinity chromatography, peptide resin, 10 mg/mL hIgG in PBS; 1st run, before any enzyme.
For assay [2] the target is unchanged. Put plainly: affinity chromatography, peptide resin, 10 mg/mL hIgG in PBS; 3rd run, after alpha-chymotrypsin and then trypsin.
Assay [3] shares this target. Put plainly: affinity chromatography, peptide resin, 10 mg/mL hIgG in PBS; 2nd run, after resin contacted with alpha-chymotrypsin.
Assay [4] has the same target. The experiment in a line: affinity chromatography, peptide on Toyopearl resin, pure human IgG load; yield = IgG eluted/IgG loaded, by Protein G chromatography.
Assay [5] shares this target. The experiment in a line: affinity chromatography of Cohn fraction II+III on peptide resin; binding buffer PBS + 0M NaCl.
Assay [6] has the same target. Put plainly: affinity chromatography of Cohn fraction II+III on peptide resin; binding buffer PBS + 0.13M NaCl.
Assay [7] shares this target. Put plainly: affinity chromatography of Cohn fraction II+III on peptide resin; binding buffer PBS + 0.25M NaCl.

*1 amine or outer side, *2 acyl side, *3 side chain or, on linkers, in order; H or OH if unused. Where no end group is shown, it is not given here. [ ]: non-standard residue; d: D form. Trp(For) = Nin-formyl-tryptophan, O=Cn1cc(C[C@H](N[*:1])C(=O)[*:2])c2ccccc21; Tyr(Me) = O-methyl-tyrosine, COc1ccc(C[C@H](N[*:1])C(=O)[*:2])cc1; Phe(4-CONH2) = NC(=O)c1ccc(C[C@H](N)C(=O)O)cc1; Trp(1-Me) = Cn1cc(C[C@H](N)C(=O)O)c2ccccc21; Phe(4-Me) = Cc1ccc(C[C@H](N)C(=O)O)cc1; Cit = NC(=O)NCCC[C@H](N)C(=O)O; Lys(Me) = CNCCCC[C@H](N)C(=O)O

B1: HWForCitGWForV (peptide)
peptide: H[Trp(For)][Cit]G[Trp(For)]V
modifications: not fully specified (C-terminus)
Take B1: the IgG yield worked out at 75% in assay [1], 69% in assay [2], 69% in assay [3] and 75% in assay [4].

B2: HFCarbCitCitHL (peptide)
peptide: H[Phe(4-CONH2)][Cit][Cit]HL
For the molecule B2, the IgG yield in assay [4] was determined as 53%.

B3: HWCitGWV (peptide)
peptide: HW[Cit]GWV-{Toyopearl AF‑Amino‑650M resin}
On to B3, for which the IgG yield is 91% in assay [1], 71% in assay [2], 73% in assay [3] and 91% in assay [4].

B4: Ac-HWRGWV (peptide)
peptide: Ac-HWRGWV-{Toyopearl AF‑Amino‑650M resin}
With B4, the figures for the IgG yield in assay [5], in assay [6] and in assay [7] were 91%, 84% and 83%, respectively.

B5: HWMetRGWMetV (peptide)
peptide: H[Trp(1-Me)]RG[Trp(1-Me)]V-{Toyopearl AF‑Amino‑650M resin}
As for B5, the IgG yield came to 91% in assay [1], 82% in assay [2], 91% in assay [3] and 91% in assay [4].

B6: HYMetFMetKMetFMetD (peptide)
peptide: H[Tyr(Me)][Phe(4-Me)][Lys(Me)][Phe(4-Me)]D-{Toyopearl AF‑Amino‑650M resin}
In turn, B6 had an IgG yield in assay [4] of 49%.
